This note sets out measurements from article PMC10806198, “Effects of OxyR regulator on oxidative stress, Apx toxin secretion and virulence of Actinobacillus pleuropneumoniae”.

This data set addresses T1, OxyR (rOxyR) (Actinobacillus pleuropneumoniae 4074 …, UniProt A0ABM6X4Q0 1-297).
T1 sequence: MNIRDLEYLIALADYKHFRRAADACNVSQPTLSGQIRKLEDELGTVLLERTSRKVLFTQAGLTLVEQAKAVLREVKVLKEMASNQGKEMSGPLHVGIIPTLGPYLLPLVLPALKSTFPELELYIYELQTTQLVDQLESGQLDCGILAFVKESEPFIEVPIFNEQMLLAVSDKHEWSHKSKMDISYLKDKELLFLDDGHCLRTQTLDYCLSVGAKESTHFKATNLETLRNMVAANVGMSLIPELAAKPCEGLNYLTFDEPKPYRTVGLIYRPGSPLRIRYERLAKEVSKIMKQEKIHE
Put plainly: EMSA; dose-dependent; abolished by excess unlabeled probe; Lightshift EMSA binding buffer (composition and pH not given), 0.5 ul poly[d(I-C)], 10 ul, 25 C 30 min; 5% native PAGE in 0.5x TBE. The conditions noted are these: protein: recombinant; tags: His (pET28a NdeI/XhoI, HisTrap purified); chain copies: 4; label: biotin 3'-end; blunt.

B1: apxIBD promoter probe (ApxIBDp) (dsDNA)
DNA 1: ATGATAAATAGCAATCCTATATATATTAGGTGTGTAGGAT
DNA 2: ATCCTACACACCTAATATATATAGGATTGCTATTTATCAT
Take B1: the binding result is reported as “binds”.

B2: catalase promoter probe (05430p) (dsDNA)
DNA 1: ATAATAATATATCCATACACAAAACCTATTAACATTCCAA
DNA 2: TTGGAATGTTAATAGGTTTTGTGTATGGATATATTATTAT
In the case of B2, the binding result was “binds”.

B3: oxyR promoter probe (oxyRp) (dsDNA)
DNA 1: GAACGTACCAGCCGTAAGGTATTATTTACCCAAGCCGGTT
DNA 2: AACCGGCTTGGGTAAATAATACCTTACGGCTGGTACGTTC
For B3, the binding result is given as “binds”.
